The labels stand for the following.
B1: EVA‐ACA1001 (untagged, for crystallization and cell assays) (natural protein)
chain: ENGEGTTQPDYDNSTDYYNYEDFKCTCPAPHLNNTNGTVMKPIGCYYTCNVTRCTAPDTYPCYNLTEHQAKNLTTSPTTLCAVGNCDHGICVPNGTKELCFKAPNLEE
B2: CCL16 (ligand, human, UniProt O15467 24-120, looked up)
chain: QPKVPEWVNTPSTCCLKYYEKVLPRRLVVGYRKALNCHLPAIIFVTKRNREVCTNPNDDWVQEYIKDPNLPLLPTRNLSTVKIITAKNGQPQLLNSQ
notes: CCL16, human CC chemokine; The E. coli preparation is described for the crystal; also called human chemokine CCL16; not shown: His6, N-terminal, cleaved; SUMO, N-terminal, cleaved
B3: CCL7 (ligand)
chain: not shown
notes: CCL7, human CC chemokine
B4: CCL18 (ligand, human, UniProt P55774 21-89, looked up)
chain: AQVGTNKELCCLVYTSWQIPQKFIVDYSETSPQCPKPGVILLTKRGRQICADPNKKWVQKYISDLKLNA
notes: CCL18, human CC chemokine
B5: CCL13 (ligand)
chain: not shown
notes: CCL13, human CC chemokine
B6: CCL24 (ligand, human, UniProt O00175 27-119, looked up)
chain: VVIPSPCCMFFVSKRIPENRVVSYQLSSRSTCLKAGVIFTTKKGQQFCGDPKQEWVQRYMKNLDAKQKKASPRARAVAVKGPVQRYPGNQTTC
notes: CCL24, human CC chemokine
B7: CCL17 (ligand, human, UniProt Q92583 24-94, looked up)
chain: ARGTNVGRECCLEYFKGAIPLRKLKTWYQTSEDCSRDAIVFVTVQGRAICSDPNNKRVKNAVKYLQSLERS
notes: CCL17, human CC chemokine
B8: CCL27 (ligand, human, UniProt Q9Y4X3 25-112, looked up)
chain: FLLPPSTACCTQLYRKPLSDKLLRKVIQVELQEADGDCHLQAFVLHLAQRSICIHPQNPSLSQWFEHQERKLHGTLPKLNFGMLRKMG
notes: CCL27, human CC chemokine
B9: CCL23 (ligand)
chain: RVTKDAETEFMMSKLPLENPVLLDRFHATSADCCISYTPRSIPCSLLESYFETNSECSKPGVIFLTKKGRRFCANPSDKQVQVCMRMLKLDTRIKTRKN
B10: CCL1 (ligand, human, UniProt P22362 24-96, looked up)
chain: KSMQVPFSRCCFSFAEQEIPLRAILCYRNTSSICSNEGLIFKLKRGKEACALDTVGWVQRHRKMLRHCPSKRK
notes: CCL1, human CC chemokine
B11: CCL8 (ligand, human, UniProt P80075 24-99, looked up)
chain: QPDSVSIPITCCFNVINRKIPIQRLESYTRITNIQCPKEAVIFKTKRGKEVCADPKERWVRDSMKHLDQIFQNLKP
notes: CCL8, human CC chemokine
B12: CCL3 (ligand, human, UniProt P10147 24-92, looked up)
chain: SLAADTPTACCFSYTSRQIPQNFIADYFETSSQCSKPGVIFLTKRSRQVCADPSEEWVQKYVSDLELSA
notes: CCL3, human CC chemokine
B13: CCL11 (ligand)
chain: not shown
notes: CCL11, human CC chemokine
B14: CCL4 (ligand, human, UniProt P13236 24-92, looked up)
chain: APMGSDPPTACCFSYTARKLPRNFVVDYYETSSLCSQPAVVFQTKRSKQVCADPSESWVQEYVYDLELN
notes: CCL4, human CC chemokine
B15: CCL19 (ligand, human, UniProt Q99731 22-98, looked up)
chain: GTNDAEDCCLSVTQKPIPGYIVRNFHYLLIKDGCRVPAVVFTTLRGRQLCAPPDQPWVERIIQRLQRTSAKMKRRSS
notes: CCL19, human CC chemokine
B16: CCL5 (ligand, human, UniProt P13501 24-91, looked up)
chain: SPYSSDTTPCCFAYIARPLPRAHIKEYFYTSGKCSNPAVVFVTRKNRQVCANPEKKWVREYINSLEMS
notes: CCL5, human CC chemokine
B17: CCL21 (ligand, human, UniProt O00585 24-134, looked up)
chain: SDGGAQDCCLKYSQRKIPAKVVRSYRKQEPSLGCSIPAILFLPRKRSQAELCADPKELWVQQLMQHLDKTPSPQKPAQGCRKDRGASKTGKKGKGSKGCKRTERSQTPKGP
notes: CCL21, human CC chemokine
B18: CCL15 (ligand)
chain: QFTNDAETELMMSKLPLENPVVLNSFHFAADCCTSYISQSIPCSLMKSYFETSSECSKPGVIFLTKKGRQVCAKPSGPGVQDCMKKLKPYSI
B19: CCL26 (ligand, human, UniProt Q9Y258 24-94, looked up)
chain: TRGSDISKTCCFQYSHKPLPWTWVRSYEFTSNSCSQRAVIFTTKRGKKVCTHPRKKWVQKYISLLKTPKQL
notes: CCL26, human CC chemokine
B20: CCL22 (ligand, human, UniProt O00626 25-93, looked up)
chain: GPYGANMEDSVCCRDYVRYRLPLRVVKHFYWTSDSCPRPGVVLLTFRDKEICADPRVPWVKMILNKLSQ
notes: CCL22, human CC chemokine
B21: EVA‐ACA1001, Avi-tagged and biotinylated (SPR construct) (natural protein)
chain: ENGEGTTQPDYDNSTDYYNYEDFKCTCPAPHLNNTNGTVMKPIGCYYTCNVTRCTAPDTYPCYNLTEHQAKNLTTSPTTLCAVGNCDHGICVPNGTKELCFKAPNLEE
modifications: biotin on the AVI tag (BirA ligase)
notes: EVA-ACA1001 (Evasin P991), class A3 evasin of Amblyomma cajennense; mass of the untagged protein 11,920 Da (calculated 11,921 Da with five disulfides); also called Evasin P991; full‐length EVA‐ACA1001; not shown: His6, N-terminal, cleaved; SUMO, N-terminal, cleaved

The first assay has as its target B11. The assay is described as follows: cell-based or functional assay.
Details: not given
In the case of B1, the “IC50 of EVA-ACA1001 for inhibition of CCL8-stimulated activation of CCR5 (cAMP assay); blocks CCL8 with CCR5” value was around 189 nM.

A further assay addresses B11. The assay is described as follows: cell-based or functional assay.
Details: not given
This is another data set of the same source.
With B1, the “IC50 of EVA-ACA1001 for inhibition of CCL8 (100 nM)-stimulated activation of CCR5 (inhibition of forskolin-induced cAMP, CAMYEL BRET biosensor, Flp-In-CHO cells); blocks CCL8 with CCR5” value came out at 188 nM and the “pIC50 of EVA-ACA1001 for inhibition of CCL8 (100 nM)-stimulated activation of CCR5 (inhibition of forskolin-induced cAMP, CAMYEL BRET biosensor, Flp-In-CHO cells); blocks CCL8 with CCR5” value is 6.51 -log(IC50, M).

A further assay addresses B12. Put plainly: cell-based or functional assay.
Details: not given
In the case of B1, the “IC50 of EVA-ACA1001 for inhibition of CCL3 (60 nM)-stimulated activation of CCR5 (inhibition of forskolin-induced cAMP, CAMYEL BRET biosensor, Flp-In-CHO cells); blocks CCL3 with CCR5” value turned out to be 94 nM and the “pIC50 of EVA-ACA1001 for inhibition of CCL3 (60 nM)-stimulated activation of CCR5 (inhibition of forskolin-induced cAMP, CAMYEL BRET biosensor, Flp-In-CHO cells); blocks CCL3 with CCR5” value is 7.02 -log(IC50, M).

In a further assay the target is B14. The assay is described as follows: cell-based or functional assay.
Details: not given
B1: the “IC50 of EVA-ACA1001 for inhibition of CCL4 (80 nM)-stimulated activation of CCR5 (inhibition of forskolin-induced cAMP, CAMYEL BRET biosensor, Flp-In-CHO cells); blocks CCL4 with CCR5” value was found to be 84 nM and the “pIC50 of EVA-ACA1001 for inhibition of CCL4 (80 nM)-stimulated activation of CCR5 (inhibition of forskolin-induced cAMP, CAMYEL BRET biosensor, Flp-In-CHO cells); blocks CCL4 with CCR5” value was 7.07 -log(IC50, M).

Another assay deals with B1. The assay is described as follows: crystal structure; EVA-ACA1001 and CCL16 mixed 1:1.2, complex purified on Superdex 75 in 10 mM HEPES pH 7.5, 150 mM NaCl; crystals from 0.1 M HEPES pH 7.0, 0.5% v/v Jeff ED-2001, 1.1 M sodium malonate; two complexes per asymmetric unit. The conditions noted are these: both partners purified.
Consider B2, for which the “stoichiometry N” value amounted to 1.

Another assay deals with B21. The assay is described as follows: SPR; screen at a single chemokine concentration: biotinylated Avi-tagged evasin immobilised on a streptavidin-coated CAPture chip (80 response units); 500 nM chemokine flowed for 240 s at 30 uL/min, 600 s dissociation; 25°C; Biacore T100; 10 mM HEPES, 500 mM NaCl, 0.002% Tween 20, 3 mM EDTA, 1 mg/mL carboxymethyl dextran, pH 7.5. As to conditions: both partners purified. On the technique in general: Surface plasmon resonance follows binding to a sensor surface in real time, without labels.
For B3, the binding result is “binds”.

For the molecule B4, the binding result is “binds”.

A further assay addresses B21. The assay is described as follows: SPR; affinity determination: biotinylated Avi-tagged evasin immobilised on a streptavidin-coated CAPture chip; five two-fold increasing chemokine concentrations (31.25-500 nM), 240 s at 30 uL/min, 600 s dissociation; 1:1 binding model; 25°C; 10 mM HEPES, 500 mM NaCl, 0.002% Tween 20, 3 mM EDTA, 1 mg/mL carboxymethyl dextran, pH 7.5; three independent experiments (Table 1 caption: multiple-cycle kinetics). The conditions noted are these: both partners purified.
In the case of B5, the Kd amounted to 0.39 nM and the pKd was 9.41 -log(Kd, M).

For the molecule B6, the Kd is 8.9 nM and the pKd was 8.22 -log(Kd, M).

In the case of B7, binding was characterised by a dissociation constant (Kd) of 1.01 nM and the pKd is 8.99 -log(Kd, M).

With B8, the Kd came to 84.8 nM and the pKd was 7.07 -log(Kd, M).

As to B9, the Kd is 1.17 nM and the pKd was 8.93 -log(Kd, M).

On to B10, for which binding was characterised by a dissociation constant (Kd) of 21.1 nM and the pKd was 7.71 -log(Kd, M).

B11: the affinity, expressed as Kd, was 4.76 nM and the pKd is 8.34 -log(Kd, M).

Regarding B12, the Kd stood at 1.08 nM and the pKd was 8.99 -log(Kd, M).

Regarding B2, the Kd was determined as 0.54 nM and the pKd is 9.34 -log(Kd, M).

B13: the Kd is 0.38 nM and the pKd is 9.49 -log(Kd, M).

As to B14, binding was put at a Kd of 1.18 nM and the pKd is 8.93 -log(Kd, M).

Turning to B15, the Kd was 1.31 nM and the pKd is 8.9 -log(Kd, M).

As for B16, the affinity, expressed as Kd, was 0.27 nM and the pKd was 9.55 -log(Kd, M).

Regarding B17, the pKd is 8.19 -log(Kd, M).

Regarding B18, binding was characterised by a dissociation constant (Kd) of 107 nM and the pKd is 7.02 -log(Kd, M).

With B19, the dissociation constant (Kd) is 1.68 nM and the pKd is 8.77 -log(Kd, M).

Regarding B20, the Kd stood at 1.29 nM and the pKd is 8.9 -log(Kd, M).

Another assay concerns the target B17. The description is as above. The conditions noted are these: both partners purified.
As for B21, the Kd turned out to be 6.5 nM.

A word on the stoichiometry N: it is the number of molecules, sites or subunits per partner or assembly. For orientation: Kd means the constant that tells how readily two partners part at equilibrium.
